Experimental data from US20230365685A1.

B1: TSR022 (antibody, INN chains, looked up, V domains shown)
VH: EVQLLESGGGLVQPGGSLRLSCAAASGFTFSSYDMSWVRQAPGKGLDWVSTISGGGTYTYYQDSVKGRFTISRDNSKNTLYLQMNSLRAEDTAVYYCASMDYWGQGTTVTVSS
VL: DIQMTQSPSSLSASVGDRVTITCRASQSIRRYLNWYHQKPGKAPKLLIYGASTLQSGVPSRFSGSGSGTDFTLTISSLQPEDFAVYYCQQSHSAPLTFGGGTKVEIK
B2: MBG453 (antibody, INN chains, looked up, V domains shown)
VH: QVQLVQSGAEVKKPGSSVKVSCKASGYTFTSYNMHWVRQAPGQGLEWMGDIYPGNGDTSYNQKFKGRVTITADKSTSTVYMELSSLRSEDTAVYYCARVGGAFPMDYWGQGTTVTVSS
VL: AIQLTQSPSSLSASVGDRVTITCRASESVEYYGTSLMQWYQQKPGKAPKLLIYAASNVESGVPSRFSGSGSGTDFTLTISSLQPEDFATYFCQQSRKDPSTFGGGTKVEIKR

Assays:
[1] = target: biotinylated human TIM-3 (human) (UniProt Q8TDQ0); experiment: competition ELISA: antibody coated, biotinylated human TIM-3 preincubated with competitor 4H2
[2] = target: biotinylated human TIM-3 (human) (UniProt Q8TDQ0); experiment: competition ELISA: antibody coated, biotinylated human TIM-3 preincubated with competitor CH 10#
[3] = target: biotinylated human TIM-3 (human) (UniProt Q8TDQ0); experiment: competition ELISA: antibody coated, biotinylated human TIM-3 preincubated with competitor 19D11
[4] = target: biotinylated human TIM-3 (human) (UniProt Q8TDQ0); experiment: competition ELISA: antibody coated, biotinylated human TIM-3 preincubated with competitor MBG453
[5] = target: biotinylated human TIM-3 (human) (UniProt Q8TDQ0); experiment: competition ELISA: antibody coated, biotinylated human TIM-3 preincubated with competitor CH 11#
[6] = target: biotinylated human TIM-3 (human) (UniProt Q8TDQ0); experiment: competition ELISA: antibody coated, biotinylated human TIM-3 preincubated with competitor 3E6
[7] = target: biotinylated human TIM-3 (human) (UniProt Q8TDQ0); experiment: competition ELISA: antibody coated, biotinylated human TIM-3 preincubated with competitor TSR022
[8] = target: biotinylated human TIM-3 (human) (UniProt Q8TDQ0); experiment: competition ELISA: antibody coated, biotinylated human TIM-3 preincubated with competitor 16H1

Binder | inhibit percentage [1] | inhibit percentage [2] | inhibit percentage [3] | inhibit percentage [4] | inhibit percentage [5] | inhibit percentage [6] | inhibit percentage [7] | inhibit percentage [8]
B1 | 98.1% | 40.5% | 0% | 99.1% | 0% | 95.8% | 100% | 70.2%
B2 | 95.9% | 15.8% | 4.39% | 100% | 8.29% | 94.3% | 94.8% | 99.2%
